Results on one molecule are retold here after patent US20150232572A1 (UNIVERSIT DE LI GE, published 2015).

The target in assay [1] is T1, recombinant MT1-MMP (MMP14) catalytic domain (UniProt P50281 112-284, limits assumed).
T1 construct: domain: catalytic domain
Briefly: ELISA. (In general: In an ELISA, binding on a coated surface is turned into a signal by an enzyme label.)

Assay [2] concerns the target T2, recombinant MT3-MMP (MMP16) catalytic domain (UniProt P51512 120-292, limits assumed).
T2 construct: domain: catalytic domain
Briefly: ELISA.

In assay [3] the target is T3, recombinant MMP2 catalytic domain (UniProt P08253 110-452, limits assumed).
T3 construct: domain: catalytic domain
Put plainly: Western blot.

T2 sequence (P51512 120-292 limits assumed): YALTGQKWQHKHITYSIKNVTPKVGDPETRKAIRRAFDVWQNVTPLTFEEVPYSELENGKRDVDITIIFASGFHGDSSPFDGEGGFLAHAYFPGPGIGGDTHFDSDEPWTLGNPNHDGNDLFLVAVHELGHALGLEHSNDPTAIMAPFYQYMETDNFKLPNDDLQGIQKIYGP
T3 sequence (P08253 110-452 limits assumed): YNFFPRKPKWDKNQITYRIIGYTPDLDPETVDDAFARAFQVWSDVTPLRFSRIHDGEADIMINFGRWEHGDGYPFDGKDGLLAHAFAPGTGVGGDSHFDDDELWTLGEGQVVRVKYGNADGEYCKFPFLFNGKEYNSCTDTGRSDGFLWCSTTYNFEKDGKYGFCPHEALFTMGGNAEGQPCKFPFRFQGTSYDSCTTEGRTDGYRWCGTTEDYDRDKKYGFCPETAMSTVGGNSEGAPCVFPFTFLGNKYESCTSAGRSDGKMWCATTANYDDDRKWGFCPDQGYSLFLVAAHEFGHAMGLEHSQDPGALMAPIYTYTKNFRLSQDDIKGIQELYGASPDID

B1: K4H7 scFv antibody (scFv)
scFv: QVQLVQSGGGLVKPGRSLRLSCTASGFTFGDYAMSWFRQAPGKGLEWVGFIRSKAYGGTTEYAASVKGRFTISRDDSKSIAYLQMNSLKTEDTAVYYCTRGSSGWFLNWFDPWGQGTLVTVSSLEGGGGSGGGGSGGGGSELETTLTQSPATLSLSPGERATLSCRASQSISSSYLAWYQHKPGQAPRLLIYGASRRATGIPDRFSGSGSGTDFSLTISRLEPEDFAVYYCLHYGSSKWTFGQGTKVEIKR
notes: Human scFv from the VTT naive phage display libraries; Purified scFv clones contain a myc tag (produced as soluble scFv-myc-his fusions); also called K4H7 clone; scFV clone K4H7
In the case of B1, the figures for the binding result in assay [1], in assay [2] and in assay [3] were “no binding (tested: 3 µg of recombinant protein)”, “no binding (tested: 3 µg of recombinant protein)” and “no binding (tested: scFv 1 µg/ml)”, respectively.
